Patent publication US7115556B2, “Use of anti-prolactin agents to treat proliferative conditions” (Greenville Hospital System, priority 1998, dated 2006)

How the values were obtained:
[1] = system: tyrosine phosphorylation of STAT5 protein in T-47D human breast cancer cells; experiment: hPRL induction of tyrosine phosphorylation of STAT5 protein (Example 8); format: cell-based
From the text: Assay of hPRL induction of tyrosine phosphorylation of STAT5 protein. […] Tyrosyl phosphorylation of STAT 5 is a receptor mediated event and is thought to be an important step in ligand-induced signal transduction (Wakao et al., 1994, EMBO J. 13: 2182–2191; Kazansky et al., 1995, Mol. Endocrinol. 9:1598–1609; Waxman et al., 1995, J. Biol. Chem. 270:13262–13270). This assay was used to evaluate the ability of hPRL and hPRLA to inhibit induction of STAT 5 phosphorylation by wild type PRL.
Briefly, human breast cancer cells were plated in 12-well plates. After pre-incubation in serum-free DMEM for 2–3 hours, the cells were exposed to various concentration of hPRL and hPRLA in serum-free DMEM. The cells were incubated for 15 min at 37° C., washed once with PBS, and lysed in 300 μl lysis buffer (50 mM Tris-HCl, pH 6.8, 1% SDS, 1% β-mecaptoethanol, 0.1M DTT, 5% Sucrose, 100 uM Sodium Orthovanadate, and 0.6% bromphenol blue). Thirty microliters of cell lysates were subjected to 4–12.5% SDS-PAGE and immunoblot analysis using horse radish peroxidase (HRP)-conjugated anti-phosphotyrosine antibody PY20 and ECL reagent kit (Amersham, Ill.). Blots were then exposed to X-ray films and developed using standard procedures (Kodak, Rochester, N.Y.). This assay has been described in Chen et al., 1994, J. Biol. Chem. 269: 15892–15897; Chen et al., 1995, Endocrinol. 136:660–667; Wang et al., 1994, Proc. Natl. Acad. Sci. U.S.A. 91:1391–1395; Chen et al., 1995, Mol. Endocrinol. 9(3):292–302; Harding et al., 1996, J. Biol. Chem. 271(12):6708–6712.

[2] = system: T47D human breast cancer cells; experiment: Mixed cell culture assay with transfected L cells, T47D; format: cell-based
From the text: For certain experiments, a mixed cell culture assay was used, diagramatically represented in FIG. 6. In this assay, breast cancer cells were co-cultured with expressor cells which had been transfected with nucleic acid encoding PRL or a PRL variant and expressing those recombinant proteins. By varying the number of expressor cells, the amount of PRL or PRL variant present in the mixed cell culture was increased or decreased. […] In certain wells, which served as a control, no expresser cells were added. Then, increasing numbers of expresser cells (transfected L cells expressing either HPRL (L-PRL) or hPRLA (L-PRLA)) were added to breast cancer cell-containing wells to create mixed cultures. The same numbers of expressor cells were cultured in parallel (without T47D cells) to serve as controls. After culturing under standard conditions for a period of time, the number of cells present in the wells was counted, and the number of L cells in the corresponding control culture was subtracted. The resulting number could then be compared to the number of T47D cells in the T47D control culture to evaluate the effects of the recombinant product on breast cancer cell proliferation.

MCF-7 cells = experiment: Co-culture with L-G129R cells, MCF-7; format: cell-based, human; settings: MCF-7 co-cultured with L-G129R cells; more hPRL-G129R required than for T47-D
From the text: The co-culture experimental set-up provides a sustained presence of biologically active hPRL-G129R, thereby resulting in a maximal response in these tumor cells.

prostate cancer cells = experiment: TUNEL assay, prostate cancer cells; format: cell-based, human; settings: 250 ng hPRL-G129R, 24 hours
Experimental: Terminal deoxynucleotidly transferase mediated dUTP nick end labeling (TUNEL) assay. Nicks of the fragmented DNA are labeled at their 3-OH ends. The fluorescein-labeled dUTP is incorporated at the 3-OH ends by using the enzyme terminal deoxynucleotidyl transferase. After the assigned period of treatment the chambers were dismantled as per the manufacturer's instructions and the TUNEL assay (Apoptosis detection system, Fluorescein- Promega) was performed as per the manufacturer's instructions. The slide was examined under a FITC filter using an Olympus IX 70 microscope system.
The samples were in duplicate and each sample constituted about 2 million cells

Caspase-3 = molecular target: T1, Caspase-3 (Homo sapiens, UniProt P42574); experiment: ApopAlert CPP32/Caspase-3 assay in T-47D cells; format: cell-based; settings: 250 ng/ml, 2 h, with DEVD-CHO control
T1 construct: endogenous in cells; host or cells: T-47D
T1 sequence (P42574 29-277): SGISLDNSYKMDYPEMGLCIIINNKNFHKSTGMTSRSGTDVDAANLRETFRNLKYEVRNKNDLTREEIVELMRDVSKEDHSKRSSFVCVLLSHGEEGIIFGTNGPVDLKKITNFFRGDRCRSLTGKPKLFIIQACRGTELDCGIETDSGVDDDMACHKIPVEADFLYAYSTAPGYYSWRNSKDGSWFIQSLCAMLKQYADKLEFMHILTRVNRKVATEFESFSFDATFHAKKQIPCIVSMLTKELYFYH
Experimental: FIG. 24. Induction of Caspase-3 by bPRL-G129R. The effect of hPRL-G129R on Caspase-3 activation in T-47D cells using an ApopAlert CPP32/Caspase-3 assay kit (Clontech, Palo Alto, Calif.) is shown. T-47D cells were treated with 250 ng/ml of hPRL-G129R for 2 h. […] The samples were in duplicate and each sample constituted about 2 million cells.
In addition, the effect of hPRL-G129R on Caspase-3 activation was assayed in T-47D cells using an ApopAlert CPP32/Caspase-3 assay kit (Clontech, Palo Alto, Calif.) as presented in FIG. 24. T-47D cells were treated with 250 ng/ml of hPRL-G129R for 2 h.

[3] = system: T47-D human breast cancer cells; experiment: Light microscopic examination of T47-D cells; format: cell-based; settings: single dose 200 ng/ml, 4-day incubation
Experimental: FIGS. 14A–E. Light microscopic examination of T47-D human breast cancer cells after single dose of 200 ng/ml hPRL (15B); 200 ng/ml of HPRL-G129R (15C); 200 nM of E2 (15D); or 200 nM of 4-OH-Tamoxifen (15E) treatment after 4-day incubation as compared to control (15A).×200.
Human Breast Cancer Cell Proliferation Assays. Human PRL and hPRL-G129R were tested further for their ability to stimulate/inhibit breast cancer cell proliferation in cell culture. Light microscopic examination of breast cancer cell proliferation after hPRL, hPRL-G129R, E2 and 4-OH-Tamoxifen is shown in FIGS. 14A–E. It is clear that there is a significant difference in cell density between hPRL (15B), hPRL-G129R(15C) and E2 (15D), 4-OH-Tamoxifen (15E) treated cells.

B1: hPRL-G129R: variant of human prolactin having a substitution of the glycine at position 129 with an arginine residue; prolactin receptor antagonist (protein)
chain: LPICPGGAARCQVTLRDLFDRAVVLSHYIHNLSSEMFSEFDKRYTHGRGFITKAINSCHTSSLATPEDKEQAQQMNQKDFLSLIVSILRSWNEPLYHLVTEVRGMQEAPEAILSKAVEIEEQTKRLLERMELIVSQVHPETKENEIYPVWSGLPSLQMADEESRLSAYYNLLHCLRRDSHKIDNYLKLLKCRIIHNNNC
induction of phosphorylation of STAT5 proteins ([1]; T-47D cells, 5 nM of hormone alone, Western blot FIG. 3): absent
hPRL-induced phosphorylation of STAT5 proteins in presence of hPRLA ([1]; equal amounts: 5 nM hPRL and 5 nM hPRLA (lane 4)): partially eliminated
hPRL-induced phosphorylation of STAT5 proteins in presence of hPRLA ([1]; excess of hPRLA: 5 nM hPRL and 25 nM hPRLA (lane 5)): undetectable
effect on proliferation in mixed cell culture ([2]; T47D, three days, effect greater than on MCF-7): inhibitory effect
inhibition of T47D proliferation ([2]; co-culture with L cells expressing hPRLA, 24 h to five days): up to 100%
inhibition of cell proliferation in co-culture (MCF-7 cells): Complete inhibition
apoptosis of two prostate cancer cells (prostate cancer cells): underwent apoptosis
Caspase-3 activation (Caspase-3): Caspase-3 induction
overall cell condition under light microscopy [3]: not as healthy
